Measured values published in US20230235069A1 (KYMAB, published 2023).

Biological target: T1, human OX40 ligand (human, UniProt P23510 51-183, limits assumed)
T1 construct: also called hOX40L; the target
T1 sequence (looked up): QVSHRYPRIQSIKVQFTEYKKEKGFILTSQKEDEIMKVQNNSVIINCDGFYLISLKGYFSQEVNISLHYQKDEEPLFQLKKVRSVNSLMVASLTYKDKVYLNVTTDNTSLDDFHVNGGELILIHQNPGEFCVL
Experiment: PK ELISA of KY1005 in human serum on coated human OX40 ligand

B1: KY1005 (antibody, human IgG4 S228P, kappa, V domains shown)
VH: EVQLVESGGGLVQPGGSLRLSCAASGFTFSNYAMNWVRQAPGKGLEWVSTISGSGGATRYADSVKGRFTISRDNSRNTVYLQMNSLRVEDTAVFYCTKDRLIMATVRGPYYYGMDVWGQGTTVTVSS
VL: DIQMTQSPSSLSASVGDRVTITCRASQSISSYLNWYQQKPGKAPNLLIYAASSLQSGVPSRFSGSGSETDFTLTISSLQPEDFATYYCQQSHSVSFTFGPGTKVDIKR
notes: also called 2D10; 02D10
binding result: binds
